Test results published in EP2835135A2, “Means and methods for treating pseudomonas infection” (Max-Planck-Gesellschaft zur Förderung der Wissenschaften …, priority 2013, dated 2015).
Bridge positions count the residues as written; N and C are the ends. Square brackets hold non-standard residues; d marks the D form. Ends that are not written are not given here. S5 = C=CCCC[C@](C)(N)C(=O)O

Columns and labels:
14-3-3 [1] = target: T1, 14-3-3 (Homo sapiens, UniProt P63104); assay: Fluorescence polarization (FP) assay: fluorescein-labeled peptides titrated with unlabeled 14-3-3 protein; assay type: binding; details: three cross-link architectures (C8-linker), Figure 6B
T1 sequence (P63104 1-245): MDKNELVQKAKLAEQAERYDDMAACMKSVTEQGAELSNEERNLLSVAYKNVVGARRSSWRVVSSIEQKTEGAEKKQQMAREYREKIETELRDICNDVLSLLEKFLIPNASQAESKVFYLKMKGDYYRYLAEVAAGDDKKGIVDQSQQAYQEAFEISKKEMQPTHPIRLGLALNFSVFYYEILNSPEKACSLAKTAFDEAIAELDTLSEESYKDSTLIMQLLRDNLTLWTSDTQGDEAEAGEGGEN
Excerpt: A fluorescence polarization (FP) assay was used to determine the affinity of fluorescein-labeled truncated versions of this peptide to 14-3-3 (Table 1). […] The labeled peptides were titrated with unlabeled 14-3-3 protein.
The binding affinities were again determined using FP.
The binding affinity of the non-classic cross-linked peptides was investigated using FP (Figure 6C).

14-3-3 [2] = target: T1, 14-3-3; assay: FP competition experiment: labeled peptide preincubated with 14-3-3 and titrated with unlabeled WT peptide; assay type: binding; details: FITC-labeled peptide 20 nM, 14-3-3 4.0 µM, Figure 7
Excerpt: The figures show: • Figure 1: (A) Schemetic representaion of ExoS' role in P. aeruginosa infection. (B) Crystal structure of 14-3-3 binding domain of ExoS bound to 14-3-3 (PDB 2002). • Figure 2: (A) Concept for an antibiotic strategy against P. aeruginosa. (B) Overlaid structures of 14-3-3 in complex with 14-3-3 binding domains of ExoS (PDB 2002) and endogenous phosphorylated sequences (PDB 1QJA, 1YWT, 2B05, 2BR9, 2BTP, 2C1J, 2C1N, 2C63, 2C74, 2NPM, 2IQV, 3LW1). • Figure 3: Alignment of 14-3-3 residues involved in inhibitor binding. • Figure 4: Dual assay for the identification of inhibitors of 14-3-3/ExoS interaction that would not affect interactions of 14-3-3 with endogenous binding parterns. L^1 and L^2 as well as L^3 and L^4 are chosen in order to allow a fluorescence polarization readout, ALPHA screen ("Amplified Luminescent Proximity Homogeneous Assay") or HRTF screen ("homogeneous time resolved fluorescence"; both ALPHA and HRTF screens are very sensitive homogeneous assay technologies that allow the screening of interactions in a proximity sensitive fashion). • Figure 5: (A) Crystal structure of ^420[…]^430 (sticks) complexed to 14-3-3 ζ ΔC (spacefill). The 2FC - F0 density is scaled to 1σ (grid). (B) Superimposition of truncated ExoS peptide (^420[…]^430) with the previously reported ExoS peptide (^416[…]^430, PDB 2002). […]

Compound	affinity for 14-3-3 compared to the starting sequence (WT) (14-3-3 [1])	displacement of the labeled peptide by unlabeled WT peptide (14-3-3 [2])
α cross-linked peptide: ExoS 11-mer with α cross-link (i,i+4): residues Leu426 and Leu422 replaced with S5, C8-linker (QG[S5]LDA[S5]DLAS; staple 3-7)	significantly decreased binding affinity	–
CC(C)C[C@H](NC(=O)CNC(=O)[C@@H](N)CCC(N)=O)C(=O)N[C@@H](CC(C)C)C(=O)N[C@@H](CC(=O)O)C(=O)N[C@@H](C)C(=O)N[C@@H](CC(C)C)C(=O)N[C@@H](CC(=O)O)C(=O)N[C@@H](CC(C)C)C(=O)N[C@@H](C)C(=O)N[C@@H](CO)C(=O)O	–	displacement by unlabeled WT peptide
γ cross-linked peptide: ExoS 11-mer with γ cross-link (i,i+3) at positions Leu426 and Leu423 (R5 and S5, respectively), C8-linker (QGLXDAXDLAS; non-natural residues)	significantly decreased binding affinity	–
